The target in experiment [1] is TSP-1 protein expressed by PMA-differentiated THP-1 macrophage-like cells, P07996. Put plainly: cell-based or functional assay.
Experiment [2] deals with TSP-1 protein (novoprotein, Catalog No. CU45), P07996. The experiment in a line: competition ELISA, TSP-1 coated, CD36-Fc as competitor, peptide 0-100 µM.
Experiment [3] shares this target. Put plainly: competition ELISA, TSP-1 coated, CD36-Fc 0.25 µg/mL as competitor, peptide 100 µM. Background: An ELISA detects its analyte on a solid surface through an enzyme-linked reagent.

By IC50 is commonly meant the concentration that gives 50% inhibition. A higher IC50 goes with weaker potency.

Chain of TSP-1 protein (novoprotein, Catalog No. CU45), P07996 (P07996 19-1170 limits assumed): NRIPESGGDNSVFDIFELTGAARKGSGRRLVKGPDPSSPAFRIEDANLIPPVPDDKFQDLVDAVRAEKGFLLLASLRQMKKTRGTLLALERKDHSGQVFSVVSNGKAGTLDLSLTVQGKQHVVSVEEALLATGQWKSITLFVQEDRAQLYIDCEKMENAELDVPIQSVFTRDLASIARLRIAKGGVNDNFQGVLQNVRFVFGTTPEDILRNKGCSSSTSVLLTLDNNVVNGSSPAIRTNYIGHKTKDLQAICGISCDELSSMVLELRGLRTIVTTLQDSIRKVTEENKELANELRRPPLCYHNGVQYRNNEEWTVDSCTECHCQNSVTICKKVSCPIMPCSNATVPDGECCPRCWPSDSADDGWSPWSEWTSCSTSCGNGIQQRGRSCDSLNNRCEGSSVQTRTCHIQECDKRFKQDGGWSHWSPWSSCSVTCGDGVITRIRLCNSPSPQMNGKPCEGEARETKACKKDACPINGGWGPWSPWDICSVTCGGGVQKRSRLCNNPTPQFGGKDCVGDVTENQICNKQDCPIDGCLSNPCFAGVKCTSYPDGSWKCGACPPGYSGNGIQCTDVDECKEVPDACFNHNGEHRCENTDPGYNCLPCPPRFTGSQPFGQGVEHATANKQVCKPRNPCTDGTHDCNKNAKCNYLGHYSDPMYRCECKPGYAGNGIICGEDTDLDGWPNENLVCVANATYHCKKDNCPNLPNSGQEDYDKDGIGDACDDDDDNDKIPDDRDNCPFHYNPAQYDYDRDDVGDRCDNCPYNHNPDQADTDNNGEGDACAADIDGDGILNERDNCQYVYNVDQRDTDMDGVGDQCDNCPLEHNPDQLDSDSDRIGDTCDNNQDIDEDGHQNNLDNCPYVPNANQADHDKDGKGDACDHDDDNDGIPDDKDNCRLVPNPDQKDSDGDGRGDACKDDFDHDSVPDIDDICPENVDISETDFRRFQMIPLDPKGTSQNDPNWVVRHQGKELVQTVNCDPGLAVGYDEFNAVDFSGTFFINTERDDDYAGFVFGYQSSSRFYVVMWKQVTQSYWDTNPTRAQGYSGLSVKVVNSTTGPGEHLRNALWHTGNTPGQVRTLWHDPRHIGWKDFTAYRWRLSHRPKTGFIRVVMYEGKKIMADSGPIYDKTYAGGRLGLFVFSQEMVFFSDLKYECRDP
Chain of TSP-1 protein expressed by PMA-differentiated THP-1 macrophage-like cells, P07996 (P07996 19-1170 limits assumed): as above

Regarding TCDAEDNC (modifications not checked) [SEQ ID NO: 43], the Mean (relative fluorescence intensity), 293-TGFβ Res reporter cells (ratio to negative control) in experiment [1] worked out at 0.65. In experiment [2], this molecule had an IC50 of 3.62 µM. The molecule further registered a Blocking rate (Mean, %) in experiment [3] of 52%.

Take TCDAEDNC (modifications not checked) [SEQ ID NO: 44]: the Mean (relative fluorescence intensity), 293-TGFβ Res reporter cells (ratio to negative control) in experiment [1] is 0.43. This molecule also came in with a half-inhibitory concentration (IC50) in experiment [2] of 6.71 µM. In experiment [3], this molecule showed a Blocking rate (Mean, %) of 52.9%.

These data come from patent US20250388623A1, “PEPTIDE INHIBITOR AND USE THEREOF” (CHENGDU BRILLIANT INSPIRATION BIOTHERAPEUTICS CO., LTD, priority 2022, published 2025).
